T1: APBA2_1, Q99767
T1 sequence (Q99767 563-664, limits assumed, looked up): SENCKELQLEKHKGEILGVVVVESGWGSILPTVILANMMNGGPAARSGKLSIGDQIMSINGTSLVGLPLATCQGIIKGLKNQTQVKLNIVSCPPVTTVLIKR

T2: APBA2_2, Q99767
T2 sequence (Q99767 654-744, limits assumed, looked up): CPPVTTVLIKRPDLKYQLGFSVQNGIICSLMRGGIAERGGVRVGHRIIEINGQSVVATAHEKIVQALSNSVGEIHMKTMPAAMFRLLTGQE

T3: ARHGAP21, Q5T5U3
T3 sequence (Q5T5U3 45-169, limits assumed, looked up): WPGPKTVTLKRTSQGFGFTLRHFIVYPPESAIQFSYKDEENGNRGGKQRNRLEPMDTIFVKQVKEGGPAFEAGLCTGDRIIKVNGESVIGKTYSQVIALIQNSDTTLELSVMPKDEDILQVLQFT

T4: DFNB31_2, Q9P202
T4 sequence (Q9P202 274-371, limits assumed, looked up): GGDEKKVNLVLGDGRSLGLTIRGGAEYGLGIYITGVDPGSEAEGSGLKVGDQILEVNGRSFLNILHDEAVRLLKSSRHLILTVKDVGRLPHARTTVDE

T5: DLG3_1, Q92796
T5 sequence (Q92796 125-227, limits assumed, looked up): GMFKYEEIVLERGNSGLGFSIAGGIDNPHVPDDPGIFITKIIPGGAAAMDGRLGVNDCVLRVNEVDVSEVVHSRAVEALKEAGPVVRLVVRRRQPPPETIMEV

T6: GRIP1_7, Q9Y3R0
T6 sequence (Q9Y3R0 999-1096, limits assumed, looked up): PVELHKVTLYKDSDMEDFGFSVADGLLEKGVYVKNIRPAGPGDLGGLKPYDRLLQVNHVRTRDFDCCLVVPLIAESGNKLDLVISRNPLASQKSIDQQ

T7: LRRC7, Q96NW7
T7 sequence (Q96NW7 1440-1537, limits assumed, looked up): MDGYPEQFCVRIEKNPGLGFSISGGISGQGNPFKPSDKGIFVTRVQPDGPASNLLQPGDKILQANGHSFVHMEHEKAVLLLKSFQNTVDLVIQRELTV

T8: NHERF3_1, Q5T2W1
T8 sequence (Q5T2W1 4-100, limits assumed, looked up): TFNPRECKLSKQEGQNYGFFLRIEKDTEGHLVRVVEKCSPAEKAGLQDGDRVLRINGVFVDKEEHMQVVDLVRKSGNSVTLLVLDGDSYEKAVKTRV

T9: NHERF3_3, Q5T2W1
T9 sequence (Q5T2W1 238-333, limits assumed, looked up): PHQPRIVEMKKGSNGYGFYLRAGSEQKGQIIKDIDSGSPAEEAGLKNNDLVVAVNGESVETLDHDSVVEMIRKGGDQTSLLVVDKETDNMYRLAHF

T10: NHERF3_4, Q5T2W1
T10 sequence (Q5T2W1 373-468, limits assumed, looked up): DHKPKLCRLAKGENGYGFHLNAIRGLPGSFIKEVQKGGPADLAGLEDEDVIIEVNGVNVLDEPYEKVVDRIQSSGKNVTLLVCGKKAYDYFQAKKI

T11: PTPN13_1, Q12923
T11 sequence (Q12923 1088-1188, limits assumed, looked up): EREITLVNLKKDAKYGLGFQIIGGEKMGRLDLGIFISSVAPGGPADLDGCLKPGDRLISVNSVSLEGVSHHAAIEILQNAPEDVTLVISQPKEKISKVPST

T12: SIPA1L2, Q9P2F8
T12 sequence (Q9P2F8 945-1036, limits assumed, looked up): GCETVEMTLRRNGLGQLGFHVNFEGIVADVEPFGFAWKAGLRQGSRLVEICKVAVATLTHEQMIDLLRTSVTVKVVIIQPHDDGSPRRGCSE


Columns and labels:
Test in all cases: holdup assay
Design in all cases: key: below the threshold = too weak to quantify, mostly under pKd 3.1 to 4
Details in all cases: plain residues with an end cap or a label only (N-terminal biotin on a linker: ado-ado)
APBA2_1, Q99767 = molecular target: T1, APBA2_1, Q99767
APBA2_2, Q99767 = molecular target: T2, APBA2_2, Q99767
ARHGAP21, Q5T5U3 = molecular target: T3, ARHGAP21, Q5T5U3
DFNB31_2, Q9P202 = molecular target: T4, DFNB31_2, Q9P202
DLG1_2, Q12959 = molecular target: DLG1_2, Q12959
DLG1_3, Q12959 = molecular target: DLG1_3, Q12959
DLG2_2, Q15700 = molecular target: DLG2_2, Q15700
DLG3_1, Q92796 = molecular target: T5, DLG3_1, Q92796
FRMPD2_1, Q68DX3 = molecular target: FRMPD2_1, Q68DX3
FRMPD4, Q14CM0 = molecular target: FRMPD4, Q14CM0
GIPC2, Q8TF65 = molecular target: GIPC2, Q8TF65
GRID2IP_1, A4D2P6 = molecular target: GRID2IP_1, A4D2P6
GRIP1_7, Q9Y3R0 = molecular target: T6, GRIP1_7, Q9Y3R0
GRIP2_7, Q9C0E4 = molecular target: GRIP2_7, Q9C0E4
HTRA2, O43464 = molecular target: HTRA2, O43464
IL16_4, Q14005 = molecular target: IL16_4, Q14005
Inadl_2, Q8NI35 = molecular target: Inadl_2, Q8NI35
Inadl_5, Q8NI35 = molecular target: Inadl_5, Q8NI35
LRRC7, Q96NW7 = molecular target: T7, LRRC7, Q96NW7
MAGI2_2, Q86UL8 = molecular target: MAGI2_2, Q86UL8
MAGI2_3, Q86UL8 = molecular target: MAGI2_3, Q86UL8
NHERF3_1, Q5T2W1 = molecular target: T8, NHERF3_1, Q5T2W1
NHERF3_3, Q5T2W1 = molecular target: T9, NHERF3_3, Q5T2W1
NHERF3_4, Q5T2W1 = molecular target: T10, NHERF3_4, Q5T2W1
PTPN13_1, Q12923 = molecular target: T11, PTPN13_1, Q12923
SIPA1L2, Q9P2F8 = molecular target: T12, SIPA1L2, Q9P2F8

FRMPD4, Q14CM0, sequence (Q14CM0 67-160): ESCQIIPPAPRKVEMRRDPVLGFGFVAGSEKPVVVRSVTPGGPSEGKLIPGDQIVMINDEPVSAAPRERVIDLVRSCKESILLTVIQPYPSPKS
DLG2_2, Q15700, sequence (Q15700 189-283): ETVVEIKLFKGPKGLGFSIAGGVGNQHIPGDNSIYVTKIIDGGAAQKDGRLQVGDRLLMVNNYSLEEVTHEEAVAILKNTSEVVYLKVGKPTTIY
DLG1_2, Q12959, sequence (Q12959 314-412): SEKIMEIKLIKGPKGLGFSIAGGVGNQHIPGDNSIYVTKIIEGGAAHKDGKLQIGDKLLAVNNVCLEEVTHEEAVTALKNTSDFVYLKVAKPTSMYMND
GRIP2_7, Q9C0E4, sequence (Q9C0E4 934-1023): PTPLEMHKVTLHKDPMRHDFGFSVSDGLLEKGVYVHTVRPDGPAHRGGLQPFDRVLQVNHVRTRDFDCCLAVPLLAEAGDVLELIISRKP
GIPC2, Q8TF65, sequence (Q8TF65 112-203): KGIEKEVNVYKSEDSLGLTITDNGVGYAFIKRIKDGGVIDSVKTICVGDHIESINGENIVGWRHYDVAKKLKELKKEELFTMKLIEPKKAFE
GRID2IP_1, A4D2P6, sequence (A4D2P6 1-87): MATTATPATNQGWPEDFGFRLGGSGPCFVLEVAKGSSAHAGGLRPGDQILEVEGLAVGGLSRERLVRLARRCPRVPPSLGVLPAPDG
Inadl_2, Q8NI35, sequence (Q8NI35 238-335): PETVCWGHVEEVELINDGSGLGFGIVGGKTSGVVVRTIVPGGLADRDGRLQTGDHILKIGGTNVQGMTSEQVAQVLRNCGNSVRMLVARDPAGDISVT
FRMPD2_1, Q68DX3, sequence (Q68DX3 770-861): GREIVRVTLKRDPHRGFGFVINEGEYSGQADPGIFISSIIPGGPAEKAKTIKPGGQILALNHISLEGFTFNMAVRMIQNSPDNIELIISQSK
MAGI2_2, Q86UL8, sequence (Q86UL8 410-522): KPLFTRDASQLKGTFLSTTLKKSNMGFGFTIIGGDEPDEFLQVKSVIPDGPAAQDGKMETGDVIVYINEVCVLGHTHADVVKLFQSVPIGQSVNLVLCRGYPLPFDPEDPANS
Inadl_5, Q8NI35, sequence (Q8NI35 673-780): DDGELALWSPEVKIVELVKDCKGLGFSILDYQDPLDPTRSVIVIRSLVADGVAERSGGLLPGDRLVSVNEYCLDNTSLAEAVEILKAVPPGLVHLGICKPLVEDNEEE
DLG1_3, Q12959, sequence (Q12959 457-571): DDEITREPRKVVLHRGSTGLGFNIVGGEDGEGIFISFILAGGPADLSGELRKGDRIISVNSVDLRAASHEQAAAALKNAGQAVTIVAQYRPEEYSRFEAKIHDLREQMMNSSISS
MAGI2_3, Q86UL8, sequence (Q86UL8 600-682): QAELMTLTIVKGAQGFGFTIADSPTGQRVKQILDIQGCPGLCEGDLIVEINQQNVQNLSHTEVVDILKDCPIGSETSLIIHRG
IL16_4, Q14005, sequence (Q14005 1229-1329): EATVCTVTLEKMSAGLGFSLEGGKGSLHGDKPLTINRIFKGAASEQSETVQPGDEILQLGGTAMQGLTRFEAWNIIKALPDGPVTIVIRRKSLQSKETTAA
HTRA2, O43464, sequence (O43464 355-458): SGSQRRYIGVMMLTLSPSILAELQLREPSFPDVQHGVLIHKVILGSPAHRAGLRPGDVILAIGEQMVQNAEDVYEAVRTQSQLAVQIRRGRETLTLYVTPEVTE

Binder | pKd (APBA2_1, Q99767) | pKd (APBA2_2, Q99767) | pKd (ARHGAP21, Q5T5U3) | pKd (DFNB31_2, Q9P202) | pKd (DLG1_2, Q12959) | pKd (DLG1_3, Q12959) | pKd (DLG2_2, Q15700) | pKd (DLG3_1, Q92796) | pKd (FRMPD2_1, Q68DX3) | pKd (FRMPD4, Q14CM0) | pKd (GIPC2, Q8TF65) | pKd (GRID2IP_1, A4D2P6) | pKd (GRIP1_7, Q9Y3R0) | pKd (GRIP2_7, Q9C0E4) | pKd (HTRA2, O43464) | pKd (IL16_4, Q14005) | pKd (Inadl_2, Q8NI35) | pKd (Inadl_5, Q8NI35) | pKd (LRRC7, Q96NW7) | pKd (MAGI2_2, Q86UL8) | further results
HYPASPDSWV [CTNND2, Q9UQB3] | below the threshold | below the threshold | below the threshold | below the threshold | 4.65 | below the threshold | 4.09 | 3.99 | below the threshold | 3.76 | 3.61 | below the threshold | 3.75 | 3.95 | 4.12 | 3.67 | below the threshold | 3.64 | 4.97 | below the threshold | pKd (MAGI2_3, Q86UL8): 3.58; pKd (NHERF3_1, Q5T2W1): below the threshold; pKd (NHERF3_3, Q5T2W1): below the threshold; pKd (NHERF3_4, Q5T2W1): below the threshold; pKd (PTPN13_1, Q12923): below the threshold; pKd (SIPA1L2, Q9P2F8): below the threshold
KLQNPNQSVV [TYRP1, P17643] | below the threshold | below the threshold | 3.98 | below the threshold | 4.06 | 3.56 | 3.86 | below the threshold | below the threshold | below the threshold | 3.67 | below the threshold | below the threshold | below the threshold | below the threshold | below the threshold | below the threshold | below the threshold | below the threshold | 4 | pKd (MAGI2_3, Q86UL8): below the threshold; pKd (NHERF3_1, Q5T2W1): below the threshold; pKd (NHERF3_3, Q5T2W1): below the threshold; pKd (NHERF3_4, Q5T2W1): below the threshold; pKd (PTPN13_1, Q12923): below the threshold; pKd (SIPA1L2, Q9P2F8): below the threshold
QRYPGNQTTC [CCL24, O00175] | below the threshold | below the threshold | below the threshold | below the threshold | below the threshold | 3.76 | 3.51 | below the threshold | below the threshold | below the threshold | below the threshold | below the threshold | below the threshold | below the threshold | below the threshold | below the threshold | below the threshold | below the threshold | below the threshold | below the threshold | pKd (MAGI2_3, Q86UL8): below the threshold; pKd (NHERF3_1, Q5T2W1): below the threshold; pKd (NHERF3_3, Q5T2W1): below the threshold; pKd (NHERF3_4, Q5T2W1): below the threshold; pKd (PTPN13_1, Q12923): below the threshold; pKd (SIPA1L2, Q9P2F8): below the threshold
VCMGDHWFDV [PRKN, O60260] | below the threshold | below the threshold | 4.08 | below the threshold | below the threshold | below the threshold | below the threshold | below the threshold | below the threshold | 3.86 | 3.83 | below the threshold | 3.56 | 4.36 | 3.96 | below the threshold | 3.51 | below the threshold | 3.75 | below the threshold | pKd (MAGI2_3, Q86UL8): below the threshold; pKd (NHERF3_1, Q5T2W1): below the threshold; pKd (NHERF3_3, Q5T2W1): below the threshold; pKd (NHERF3_4, Q5T2W1): below the threshold; pKd (PTPN13_1, Q12923): below the threshold; pKd (SIPA1L2, Q9P2F8): below the threshold

— publication PMC9482650, “Quantitative fragmentomics allow affinity mapping of interactomes” (Nature Communications, 2022)
